Experimental data from US20140315822A1.

How the values were obtained:
[1] = target: T1, PDZ domain of the human MAST2 protein (human), Q6P0Q8
T1 chain: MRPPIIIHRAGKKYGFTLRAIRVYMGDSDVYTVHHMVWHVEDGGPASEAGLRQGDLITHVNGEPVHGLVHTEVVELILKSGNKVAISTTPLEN

[2] = target: T2, PDZ domain of the human PTPN4 protein (human), P29074; assay: method not restated in the table; ITC per paragraph 50
T2 chain: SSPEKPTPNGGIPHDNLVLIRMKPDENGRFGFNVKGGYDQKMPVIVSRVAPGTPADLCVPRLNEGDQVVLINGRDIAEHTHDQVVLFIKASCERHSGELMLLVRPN

B1: ATT13 (peptide)
peptide: SWESHKSGGETRL
modifications: not checked
- Kd [1]: 0.57 µM
- Kd [2]: 160 µM
